Consider one substance from paper PMC5751952.

The experiment concerns the target wild-type ElDyP lacking the His6 tag (subtilisin A-treated, for crystallization) (Enterobacter lignolyticus). Kind of experiment: crystal structure.

By stoichiometry N is commonly meant the number of molecules, sites or subunits per partner or assembly.

In turn, “wild-type ElDyP lacking the His6 tag (subtilisin A-treated, for crystallization) (enzyme)” came in with a stoichiometry N of 2.
